# Reference: the DeepSol protein solubility set
# Experiment: soluble on expression in E. coli; label from the status in PepcDB or PDB records
row,Sequence,soluble on expression in E. coli
1,MVIRRTYMARDNTYYLDEALYISAQAPTGIELSFIGGGGPGSGGWGLSDGYPRGTSPTKNDIARVISTRRVLTEEFQIIEKDYSDKYAHETNQLPETINALKAQIKAEASSTNGAASPFVTEQQILSSRISQIRDGYLQILPDANNYFGVPAFYKRGDSMMSRFLDPGFFAATTGQELGVEWATRLQKSWEGTYRLHLEAQKHQALADELRALASQVDQEELSQQPLDLLQVIARRTAQIHTERQIHFDCLPNVLQHELGQTVIDDTLTLVQTFSTYLATAAALVQAKQSQIPPYQDQNPRINSPLSKPQLEGLLHLVDEQRLRRAGPRWQEYHLALALTESIRFLGVYAGATQNLMQRAAEVENLQAQLAAQEEAARQQAEAERLAAEAERQRQEALRRSVSYINEARLAVSTPAVIPIGATTFAVAEAAYSALAESIAAALTRLVATTVPSVAVGTLAMAWPSTLGNSERQYLISTPLDSLSPAGGPDLAALAASSTSIDLPYLLAGVENENELDLYVVPSGKPVAVRAATFDSERQVYSLALDNPQRILTWTPASAPGGDEGNSTSLPLVPPGTVVYTGSSLNPVVTEQEGYPALDLLDQERLIITFPMDSGLPPILVVFKSPRYEAGTSTGHGAQVSDTWRKEAASLEGAPIPAQIAELLKSREFRNFDAFRRQFWKAVANDPELSKQFDEMSLSRMRKNGYSPIVDFPDSHLSQKTFILHHVIPISEGGGVYDMDNIRIVTPLSHNSIHYGTKPLEHHHHHH,not soluble
2,MVKIVKAQFHTAGKLYDFGAGDLDLKPGDKIIVETERGRSIATVVTPPREYEEAHVPEGLKTAIRIAEPSDLASAARNDAREQEAHAFCLRKIKERGMEMKLVKVEYLFDGSKAIFYFTADGRVDFRELVKDLAHQFHTRIEMRQIGVRDESKMIGGIGICGRELCCSSFLREFEPVSVKMAKEQNLALNPTKISGQCGRLLCCLGYEYETYCSLKKCLPKCGKVVKCGSTEGEVIKQNIIEGTVFVKTDDDRIVELKGESIKPEDISERPKSPRREGGTREREKEPQSSSDNQRREKPRDREQKPGDDGEQRRERDTKKNQDQQRGERGNRDRRGGKGRDKDKKEPKLEHHHHHH,soluble
3,MVLFTGKTVEEAIETGLQELGLSRLKAHIKVISKEKKGFLGFGKKPAQVDIEGISDKTVYKADKKATRGVPEDINRQNTPAVNSADVEPEEIKATQRLEAEDTKVVPLMSEDSPAQTPSNLAETVTETKAQQPSIPVEESEVPQDAGNDGFSKDIEKAAQEVSDYVTKIIYEMDIEATVETSNNRRQINLQIETPEAGRVIGYHGKVLKSLQLLAQNFLHDRYSKNFSVSLNVHDYVEHRTETLIDFTQKVAKRVLESGQDYTMDPMSNSERKIVHKTVSSIEGVDSYSEGNDPNRYVVVSLQR,not soluble
4,MVLSCRVVDCGGLKLKENQTLLLLVSTIHNSSEVGKLSIDAEEKRSKEWLEMPCAEGMLSLKLTLWQDLLKGINSVFHGQVRVDVDENWKSGPAKWFYLRSKANEDGEGGEDGGDIGDATVKVTYQIDHILRMQVYKPLLDLLFLAGDVQPLTASLVAVIEALPKVELGPVSRSLVELMAQSDRIRPVLSSLYVNSILKCQDENTLFRGQSLSGKMLFEILTTYGKMYLITTLKPVVDKIYKERKNCEVDPARVAVGASLEKNRNNLLVYFQMLFERVTTSSTNCPHLIKQLLYDLRNVVGTHSSRSGVQRLAVSSFVIMRFFAAAILNPKAFEIRKDQPDLRVSRTLLLLSKLLQRLSNCSVSEGPLSSKEIWLNGVFETVTSEQHKSVMASFLDNISLVGDRSEPQKCTVFKFGNLQQVDRSRLAWKKVLHYKKRYVQLTNTHLIWQKDVQCAPKGTVPLSDIKFVNVDNKNIITIVCETMQLQFEAPGGVEATDWLNAIERQRNRAAHEIAETPGEHFFVDAERHVDKIHTLLYKYRETMIEWRDQLQSNVELDEKTAPELLKASYVVEEERQSHKDSLIATLCSTIDVTDAIQLAHTEYEKENKVSRRIDAIITAKKRQKSFSVK,not soluble
5,MVLSVVVVGKPRCRSIAVAARERLHRYGEYPMSSNNASGKVVSVDEQAFENAGEQAADEDGFPVVDETPEFEAAVEQETQAKVDANHPDGIADTSEDRIHGVTLEQEERIRAREAELERISAQAELGTQDGREQRTRDIAAKRSAVRRAEFQTRAASVDPMADPERDDPRAELTQEQLAAVNKQSMRLAEKLDGWSRAAIGRRLGEAVVGGKDVTSAVVGVFEELQTAPGTVIPIGKLEDVNRKEVSIEGTVTRLWKPSSAAISQVGLIEDESGKTKFTSWVASEQPWIEEGEHVRIHGAAKNWYNGRVSVALTGWSTVHFPERGRWWEALEHHHHHH,not soluble
6,MVMTVRVIAPDKTVWDAPAEEVILPSTTGQLGILSNHAPLLTALETGVMRVRQDREWVAIALMGGFAEVENNEVTILVNGAERGDTIDLEKAKAEFAAAQAALAQAEQGESKQAKIQATQAFRRARARLQAAGGVVEI,soluble
7,MVNLTELDRMLTETRGLLSQVRSGKGGASQEAVEGQGSAADGRIRVVAGAGGEITSIELDPRVMRMSSQELAEHLVEAVNQALRELRAQVTTAETAIAPEVLAQRLAEVQDQGLRQMTMFVEGLRDAMTQLGQRADRSG,not soluble
8,MVPDRREQSKAKERLLEREEALAKHMSEREKRPPPKIDPPPSPKAPEPSKRVLKEKQAPLFVDTAVEGTLPPLSLLDPAEVKQKSYSPESLEAMSRLLEIKLKEFGVEVSVDSVHPGPVITRFEIQPAAGVKVSRISNLAKDLARSLAVISVRVVEVIPGKTTVGIEIPNEDRQMVRFSEVLSSPEYDEHKSTVPLALGHDIGGRPIITDLAKMPHLLVAGTTGSGKSVGVNAMLLSILFKSTPSEARLIMIDPKMLELSIYEGIPHLLCPVVTDMKEAANALRWSVAEMERRYRLMAAMGVRNLAGFNRKVKDAEEAGTPLTDPLFRRESPDDEPPQLSTLPTIVVVVDEFADMMMIVGKKVEELIARIAQKARAAGIHLILATQRPSVDVITGLIKANIPTRIAFQVSSKIDSRTILDQGGAEQLLGHGDMLYLPPGTGLPIRVHGAFVSDDEVHRVVEAWKLRGAPDYIEDILAGVDEGGGGGGSFDGGDGSGEGSEDDPLYDEAVRFVTESRRASISAVQRKLKIGYNRAARMIEAMEMAGVVTPMNTNGSREVIAPAPVRDKLHHHHHH,soluble
9,MVPQTETKAGAGFKAGVKDYRLTYYTPDYVVRDTDILAAFRMTPQPGVPPEECGAAVAAESSTGTWTTVWTDGLTSLDRYKGRCYDIEPVPGEDNQYIAYVAYPIDLFEEGSVTNMFTSIVGNVFGFKALRALRLEDLRIPPAYVKTFVGPPHGIQVERDKLNKYGRGLLGCTIKPKLGLSAKNYGRAVYECLRGGLDFTKDDENVNSQPFMRWRDRFLFVAEAIYKAQAETGEVKGHYLNATAGTCEEMMKRAVCAKELGVPIIMHDYLTGGFTANTSLAIYCRDNGLLLHIHRAMHAVIDRQRNHGIHFRVLAKALRMSGGDHLHSGTVVGKLEGEREVILGFVDLMRDDYVEKDRSRGIYFTQDWCSMPGVMPVASGGIHVWHMPALVEIFGDDACLQFGGGTLGHPWGNAPGAAANRVALEACTQARNEGRDLAREGGDVIRSACKWSPELAAACEVWKEIKFEFDTIDKL,soluble
10,MVPVVALVGRPNVGKSTLFNRLTRTRDALVADFPGLTRDRKYGRAEIEGREFICIDTGGIDGTEDGVETRMAEQSLLAIEEADVVLFMVDARAGLMPADEAIAKHLRSREKPTFLVANKTDGLDPDQAVVDFYSLGLGEIYPIAASHGRGVLSLLEHVLLPWMEDLAPQEEVDEDAEYWAQFEAEENGEEEEEDDFDPQSLPIKLAIVGRPNVGKSTLTNRILGEERVVVYDMPGTTRDSIYIPMERDGREYVLIDTAGVRKRGKITDAVEKFSVIKTLQAIEDANVVMLVIDAREGISDQDLSLLGFILNSGRSLVIVVNKWDGLSQEVKEQVKETLDFRLGFIDFARVHFISALHGSGVGNLFESVREAYDSSTRRVGTSMLTRIMTMAVEDHQPPLVRGRRVKLKYAHAGGYNPPIVVIHGNQVKDLPDSYKRYLMNYFRKSLDVMGSPIRIQFKEGENPYANKRNTLTPTQMRKRKRLMKHIKKNK,not soluble
11,MVQELLKQLQNGEAKFADVLAYIESRFEHQPTAFKNGQQQNAATENQGSAKVFSLAQIEGLNQTETLSLFAEHYAAVLNTPEGTDHQNIRQFMQHGWDGVTFEGEALQAK,not soluble
